Data from the Immune Epitope Database (IEDB).
pKd: −log10 of the molar value.

Assays:
HLA-A*02:01 [1] = assay: IEDB peptide-MHC binding, purified MHC/competitive/radioactivity; filed as Kd, often an IC50 or EC50 that approximates it; ≥ and ≤ were set here for values at or beyond the usual limits of such assays
HLA-B*40:01 = assay: as above; settings: source organism: Dengue virus 2 Jamaica/1409/1983
HLA-B*44:02 = assay: as above
HLA-B*44:03 = assay: as above
HLA-A*02:01 [2] = assay: IEDB peptide-MHC binding, purified MHC/competitive/fluorescence; filed as Kd, often an IC50 or EC50 that approximates it; ≥ and ≤ were set here for values at or beyond the usual limits of such assays; settings: source organism: Variola major virus
HLA-A*02:02 = assay: IEDB peptide-MHC binding, purified MHC/competitive/radioactivity; filed as Kd, often an IC50 or EC50 that approximates it; ≥ and ≤ were set here for values at or beyond the usual limits of such assays
HLA-A*02:03 = assay: as above
HLA-A*02:06 = assay: as above
HLA-A*68:02 = assay: as above
HLA-A*26:01 = assay: as above
HLA-A*01:01 = assay: as above
HLA-A*29:02 = assay: as above
HLA-A*30:01 = assay: as above
HLA-A*30:02 = assay: as above
HLA-A*32:01 = assay: as above
HLA-B*39:01 = assay: IEDB peptide-MHC binding, purified MHC/competitive/fluorescence; filed as Kd, often an IC50 or EC50 that approximates it; ≥ and ≤ were set here for values at or beyond the usual limits of such assays; settings: source organism: Escherichia coli
[3] = source organism: Dengue virus 2 Jamaica/1409/1983
[4] = source organism: Dengue virus 4 Philippines/H241/1956
[5] = source organism: Vaccinia virus WR
[6] = source organism: Dengue virus 3 Martinique/1243/1999
[7] = source organism: Trypanosoma cruzi
[8] = source organism: Mammarenavirus choriomeningitidis
[9] = source organism: Mammarenavirus brazilense
[10] = source organism: Dengue virus 1 Brazil/97-11/1997

AAGLQDCTM
pKd (HLA-A*02:01 [1]; source organism: Hepatitis C virus (isolate 1)): ≤ 4.30

AEAIFKLTYQ
pKd (HLA-B*40:01): 5.84 | pKd (HLA-B*44:02; [3]): 6.70 | pKd (HLA-B*44:03; [3]): 6.57

AGADTSEVHW
pKd (HLA-B*44:02; [4]): 5.31

AMHDKKIDIL
pKd (HLA-A*02:01 [2]): 6.65 | pKd (HLA-A*02:02; [5]): 6.41 | pKd (HLA-A*02:03; [5]): 5.93 | pKd (HLA-A*02:06; [5]): ≤ 4.16

ATMANEMGFL
pKd (HLA-A*68:02; [3]): 7.16

AVWDQYKDL
pKd (HLA-A*02:01 [1]; source organism: Lassa virus Josiah): 4.90

DTAWDFGSV
pKd (HLA-A*26:01; [6]): 6.76 | pKd (HLA-A*68:02; [6]): 8.82

DVSRPTTVM
pKd (HLA-A*02:01 [1]; [7]): ≤ 4.16 | pKd (HLA-A*02:02; [7]): ≤ 4.47 | pKd (HLA-A*02:03; [7]): 4.81 | pKd (HLA-A*02:06; [7]): 4.82 | pKd (HLA-A*68:02; [7]): 6.00

EENMEVEIW
pKd (HLA-B*44:02; [4]): 7.63 | pKd (HLA-B*44:03; [4]): 7.09

EIFSMMVSSF
pKd (HLA-A*01:01; [8]): 5.12 | pKd (HLA-A*26:01; [8]): 8.42 | pKd (HLA-A*29:02; [8]): 5.86 | pKd (HLA-A*30:01; [8]): 6.03 | pKd (HLA-A*30:02; [8]): 4.88 | pKd (HLA-A*32:01; [8]): 5.89

EMKTQLEEL
pKd (HLA-A*02:01 [1]; source organism: Homo sapiens): ≤ 4.68 | pKd (HLA-A*02:03; source organism: Homo sapiens): 7.09 | pKd (HLA-A*68:02; source organism: Homo sapiens): 6.55

EMREQHDAQV
pKd (HLA-A*02:06; source organism: Homo sapiens): ≤ 4.16 | pKd (HLA-A*68:02; source organism: Homo sapiens): 6.34

ENARLRALL
pKd (HLA-B*39:01): 6.08

ESAQPGLLSY
pKd (HLA-A*01:01; [9]): 7.16 | pKd (HLA-A*26:01; [9]): 7.84 | pKd (HLA-A*29:02; [9]): 5.51 | pKd (HLA-A*30:01; [9]): ≤ 4.15 | pKd (HLA-A*30:02; [9]): 5.77 | pKd (HLA-A*32:01; [9]): ≤ 4.16

ESITLATGPL
pKd (HLA-A*26:01; [10]): 5.70 | pKd (HLA-A*68:02; [10]): 7.00
